Experiment: soluble fraction after stress (log2 fold change); higher = more stays soluble; pooled small domains, quantitative proteomics
Details: stress: 50 degC
How it was run: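 After stress at 50°C, the amount of each protein still soluble was measured. This was done on pooled custom libraries of small protein domains, using high-throughput quantitative proteomics. The figure given is a base-two log fold change and stands for aggregation propensity, with higher values meaning more protein stays in solution.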

Sequence | soluble fraction (log2)
HMAVKLELYRVFKEVAETGNISAAAKNLYISQSAVSQSIKQLETALQARLFARSPRGVTLTGEGQMLYQYV | -1.44
HMETVRLSVDAQGAYYWNEQRVDDSALPDLLREASGRKPQPDLHIRGDKAVRYERVAEAMAAAQRAGLKKI | 0.0588
HMHYNMNYLENLTKTELFDLAKNKFGLTYAEMERHLSIPEGGARYAIKAEHSKYGSDIKKYLVEFLLE | -1.18
HMGAAIEYGDRGNTVLQAQRLLIARGYMAGSADGIYGRQMEQAVKRFQKEQGLPESGVVDRRTLQVLIRSR | -0.626
HMELNFEGFYRFVRDELNVDLNAYKEKQLKRRIATVMKSSGALTLEDYSRLIANDEVIRNKFLDYITI | -1.08
HMQPLGHDLTERELDVLALMVTGMNNSEIADKLVVSRSTIKYHVSNILSKLQATSRTEAVAYALQQNLVH | -0.469
HMTAYEGLPVTLIIDGRVFQQNLQKMNLSVEWLRLELKKFGVTNLKEVLFASLDTEGKLFYQLKT | 0.0485
HMLKEDSAYELGLRIFDQALNDYGTSFIDLKEDEYKKVLSIYGYSNPRQLIINIGLGNVIPHLLARDITE | -1.23
HMGTPLYLLLAAEVRDRIATEQLAPHTAVPSERELAELHGVSRMTARQALALLESEGLVYRNPPRGTFVAE | -0.85
HMSRLLRTDAHLQYAAERGLPVTASAYTPVFAGAKQYTGRIESFDAQTIRFADGPAVERKAVARLEAE | 0.159
HMLNDTGAIRAAVEEVLAANEKSVNEYKGGKTQAFQYLIGQSMRALRGKAPAQEVTKLLKELLG | -0.263
HMNVWGLSERELEATRLLIEGFSSKEASARMGISPSTVRSLWGRARAKMGVDSIEDARELVA | -0.236
HMGTESFGARIRKIREARDWTPAALAEATGQTPEFVARVERDEVAPPVAFLLRLAAALGVDPSTF | -0.123
HMKIEEIAYSTFISMLDKGEVSKVELKDNLIYIETKADDKTIYTTGRMEDPDLTNRLIEAGVDFTEIE | -0.317
HMVKDIEFSLPLEQDYYKVLISVKDSQGKRQVYEELHRAGDTVYAAVRYYGSGELEIHLNGKFYKTIK | -0.521
HMKDIIVDPQGQYNHPGVPTRIPSSDITMKGVGYPVLGIADNGQKQMMQPGQDYKFPGAKYVDEYPQM | 0.137
HMAVDAASSTIGKNVEVSVANEKGDYENFNGKVKSASIKDGVVYLELELKDTGEIKEVPYSSLTKIT | 0.0595
HMNAELSTVQAAEVLNVSRPFLIKLLEDGAIPHRKVGKHRRVRMEDVMSYKAAIDTEREAVLDQLAA | 0.123
HMSNHYETLGVPRDASQEDIKRAYRRLARKLHPDVAGPGKAEEFKAVNEAYAVLSDEESRRMYDLGGDDAL | 0.146
HMSNEWIEISAKTVDDAINEGLIRLGTTTDKMDVEVLEKESAGFLGFIGKHDAKIRVRFKEV | 0.105
HMPTTLEGIEKYLSSGLIKGIGPHLAGKLVEAFGTRVFEVVEHQPERLRTVGGIGRTRAESITSAWRDQ | -0.168
HMVGAEDISKPMNLGALMRTAHAFGASFFFTINAHPKVRHAYNSDTSRSFDHMPYYPWDTMEE | 0.129
HMSSEPASLVGKTGVAASVLRPSGRVEVNGEYYDAVSINGFIEKGESVFVHKYENAQLYVSKNSE | 0.0445

Sequence | soluble fraction (log2)
HMESMIGSLRGRLLELFGDGEVLIEVGGVGYRVIVTPTTTVRLGDVGGDVFVHVHHHIREADQTLYGF | -0.234
HMYIKYETVLQNITERIAALRKNGTLVLDGERTLAAEFDASRGTIRKAMRQLEENGTILREGYVTRILPE | -1.61
HMPTELVYTVPASAEGLRLDHFLVQHVPHMTRALATELTGAGGVRVNGRRAKKGDRLPSGAEVRLER | 0.178
HMTKSTSMDLGGFMIVEGSETVRLGGQILQKDVDYTIDYFSGKINFISEEALNPGAEISVSYEENQ | -0.187
HMDDKLKKLEEVFEMQEGTLTPDMRLDELEEWDSMTRLSLIVMMEDDYGKKVKRSEVMNYTTVQDIVDSME | -0.5
HMRQHHMIISTKLGTPKEELAKLVSGFEDQGLRVSVITGTDYTVIGLVGDTTHLDEKRIRANPYVDNVQRV | -0.0184
HMVPISGADFEKLSDYILQKAGAGSIQVKELLAGLKGMHEKNLWKAIDYLLAEEKIRIDKGGNISVK | -0.00539
HMKKGRIGSIIQYVREHPGVSSSEIITGLGLDISPATIRRDLTLLVAENKLSVEGQNKGTKYFVSPTYDMF | -0.323
HMAQDIEQLEKAVSFYTRMDPAAAALSITNLDQKTAVNILMRMKDKQASAVLESMTAERSSELIDSIARK | 0.00388
HMNFDLDSFKQRMTLDGLYFGNEKQDVIALNNLSERYQLTWFDVYQLAKETSSNHKILPKRILVKLQQ | -1.07
HMPAVGGVVKGAVVSVGRNEVRLDIGGLAIGIIRGPELDKHVDLRIGDEVEATVITLDNEFGELELSL | -0.72
HMPPNPELGKKLLKLRKEFKMTQDDVANILGMSRTSFSKYENGIANPPLQVMRKLASIYNVGLEYLI | -1.04
HMALLSDEERIATVFAARLGGYSHQEIYKLLQDRFGPSLPAAYSEKSVLTDLQTALSQVPSL | -0.208
HMKTLNKRQQDIINLAREEGFVTVEHLSEYFKVTQQTIRRDLGYLSENLYLARTYGGAFFQS | -0.872
HMSGMNSDHRVNGNIHTFLIQHDLGTKWSVFTEQLLKQVFRSFLPDKELNFQTTDSTVILKVSLGSDFNEH | -0.0505
HMPVFSAEQVAKAEADVQKVANKVQEAGADVEKLTTIHNWLLAREKYMPPDLFSTANQIIATAFQKAG | 0.112
HMPYHSEAWHKVMKSHWLTLSREEAYMHEGRTGASTINIVFQRELGREATQEEIESIYQEKSVLFNSYP | -1.46
HMQETMTNDEVISLTKAGLSSSIIIGKIRSSATNFDLSTDSLIKLKQAGVSDETVAAMLEAKS | 0.0855
HMTRQRQLIYNIIQRADDHPTAEMIYARAKAEMPSIAFGTVYRNLKLMVDAGEILHIPVAGEPDRYDK | -1.98
HMGGLENNLKQARNRVGLTQSELARQAGISRQAYSSLESGAANPSTEVALRLAQALSERVESLFYLPE | -0.0819
HMTKTSQEDEDIMRHLDELHTRWPFLGQRKLIEELKDQGIQIGRKRLRRLMKVMGIEAIAPK | -1.29
HMPKDLEKRAAILAAAKHLFPVHGFEGTSMDAIAALANVSKLTVYSHFKDKESLFTEAIREK | -0.087
HMQVLLTRREKEILKLIAEGLTSAEIGKRLFISTTTVDTHRKHLLEKLKAGNTAILIKTAVQLDLI | -1.26

Sequence | soluble fraction (log2)
HMQINLSEWVLAAREYAGPEMTQEKLAEHLGRTKANVSAMENGRSKPSFEQMMEIHRVTGYPLPYQ | -0.218
HMAILDTALDVLSMNLKDNYTSFQILRQAAIAGKIAFNLTEKNPLGGVIEVELTGDDLETWIEAATW | -0.115
HMYTPDYLSDLMVRMAHHSTAIEGNTLTQGETKSVLVDGYIPRAMDMRELNEVLNYKAFMTFLVE | -0.0969
HMTNKKIILEIFQNSDKPLIVEEISKKMFEKTGKKMILSTIYRNLKNMEDVGILKKIYNEDGSYMYIF | -0.953
HMLPFGHTRLEDGTIQEIPEQIALARKVAEMYKAGFPVMQISIKTEGLLTPRQIYGLMNHWGVKR | -1.24
HMSLTMPKLIGMHLFQAERTLNYYGFQYKVEGPDSASVVIDQYPKEGVTVDPHYPITLKIGPSA | -0.158
HMTLSENEKIIVDTIMKYQPLHIDVLNQQVKVDFYTLLGLLTKLEMEGIVLKNPGNIYKINTL | -0.346
HMKYEGEDEYYASLVTEKIAAIGTVTEESEDAIKEARAAYDALTSAQKKLVTNYDVLDEAEK | 0.371
HMDKPIVFLEDTKAHKSSDLQSPVYMTVPKGTIAFVIAEKGDWSQVYAGRVLDRNLASQWVRRGFS | 0.227
HMIDIGSKIKKLRSKKSIEIGKKYTGAMLANELGISRSYLGDIESGRTVPNEIILGKIADIFDVDIYELIG | -0.256
HMSDDLLTGLDAYSRGDWTTATASFERVLTTADPNNRTEALYWLVMSETSAQNYQRALNYANTFL | -0.688
HMGELRAPLPGVIVSIPVKEGDEVKAGQAILIIEAMKMESEISSPIDAKVAKIVVKERVLVQEGDILIILE | -0.702
HMGPSSIVVYVSGAVKTPGVYTLAPGSRVDDAVRAAGGLSERAESAGTNLAAQLSDGEHVHVAAAGE | 0.228
HMGRFAETVEHIVAAQLARRQGIPTMEQFASFFNVSRATFQRRLGEEGETLEQIKQRVRLRLALELLHP | -2.86
HMTPTFSNQDLIKAGLAGSPVAKRRRERLGELLGIGYGNAKQLLKRLDLFAIDRPTFERAVAQLDQEGK | -0.161
HMAKKDVESTLGGRLRVARVRAGLTQVELARMLGMNSVSLSNVEGGRRGLSMKQLVRVAKILEVPVAYLLG | -1.65
HMIKKAILPVAGLGTRFLPASKSIPKEMVTVVDRPAIEYVVREAVEAGIEQIILVTHSSKASIENYFDR | -0.187
HMSELSGSQLKAIREEKHIPLEQVASATRIRLSLLEALEMDEYAELGSRTQARGFLKLYADFLGVPFEA | 0.0345
HMEVSYSLPRFHKGKNPYVDFYQVDPRTLRMRRKKFLLRGVRDAVLLEQRAADLVALLTERLHSGWNAWDD | -2.11
HMDEQVETLKNLISELPKEQLEVLVMRHYEDLSFKEISEKTGVSINTALGRMRYALINIRKLMKENN | -0.223
HMDTNVKLLSPKQADFFASKLANNQNFSSKFAKVGEDMQPFIERISSELQQDISQVIVYMPYLLESGFKQ | 0.0782
HMLGSGSKEQQLVILNNILERQVQAFNLQGGQEYPMVTLKNFYNTLSKMIENAGLKNVENYFVNPDVGKQM | -0.302

From the domain aggregation screens of Martell et al. (2025)
